Assay results published in the supplement of paper PMC10126150.
± gives the standard deviation of the averaged measurements.

Test system: ATP
Assay: switch fluorescence ratio, 500 uM ATP over buffer (Cy3 cluster intensity, sum of 5 cycles each) (fold (ratio)); higher = stronger signal-on switching upon ATP binding; sequences stand for … in TCGTCGGCAGCGTCAGATGTGTATAAGAGACAGTTTTTTTTTTTTTTTTTTTTTTTTT…TC
Conditions: aptamer strand: ATP DNA aptamer (quencher-CACCTGGGGGAGTATTGCGGAGGAAGG + anchor), 100 nM annealed; ATP concentration: 500 uM
Method in brief: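 Clusters carrying Cy3-labelled switching strands on a modified Illumina MiSeq flow-cell were annealed to 100 nM quencher-labelled ATP aptamer and imaged in selection buffer. They were imaged again after 15 min with 500 uM ATP at 22 °C, over five buffer/ATP cycles with NaOH stripping and re-annealing in between. For each cluster, the fluorescence ratio is the summed Cy3 intensity of the target cycles divided by that of the buffer cycles, averaged per switch-domain sequence. Clusters outside 100-1000 RFU were left out.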
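Also: ATP exposure 15 min at 22 °C before imaging.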

TTTCTCTGAG
switch fluorescence ratio: 1.04 ± 0.033

CTAGGATGTG
switch fluorescence ratio: 0.997 ± 0.031

GCTGTTGGAG
switch fluorescence ratio: 1.02 ± 0.031

CGTCTGGGGG
switch fluorescence ratio: 1.01 ± 0.021

ATTGTTCAAA
switch fluorescence ratio: 1 ± 0.015

GTTAACTCGG
switch fluorescence ratio: 0.985 ± 0.047

GTTATTTTAA
switch fluorescence ratio: 0.9846 ± 0.0027

TCATTTTCGG
switch fluorescence ratio: 0.986 ± 0.025

TTTCACGAGC
switch fluorescence ratio: 0.993 ± 0.091

ATGGTTCCCT
switch fluorescence ratio: 1.01 ± 0.02

TGATTCAAAT
switch fluorescence ratio: 1.02 ± 0.0087

CACTAATAAT
switch fluorescence ratio: 1.033 ± 0.0029

TTCCAGGTGG
switch fluorescence ratio: 1.42 ± 0.14

CCATAACGGG
switch fluorescence ratio: 0.97548 ± 0.0008

CTAGTTAGGC
switch fluorescence ratio: 0.9844 ± 0.0091

GCGTGCCTCG
switch fluorescence ratio: 1.02 ± 0.036

ATTGGACAAT
switch fluorescence ratio: 1.02 ± 0.032

TCGGGAATCG
switch fluorescence ratio: 0.983 ± 0.027

GGGGGGTAGT
switch fluorescence ratio: 1.02 ± 0.067

CGTTTGGTGT
switch fluorescence ratio: 1.0115 ± 1.5e-05

GGACCCGCCG
switch fluorescence ratio: 1.025 ± 0.0016

TTATACAGTG
switch fluorescence ratio: 1 ± 0.031

CGGAGACGGT
switch fluorescence ratio: 0.9958 ± 0.0078

AAGAAAGTGG
switch fluorescence ratio: 0.993 ± 0.034

CCAGGAGTCA
switch fluorescence ratio: 1.032 ± 0.0017

AATATGATTG
switch fluorescence ratio: 1.02 ± 0.019

GAATTCTTGA
switch fluorescence ratio: 0.9532 ± 0.0043

AGTTGTGTAT
switch fluorescence ratio: 1.01 ± 0.051

TTTCGTCGAA
switch fluorescence ratio: 1.017 ± 0.01

CGAAGTTTGT
switch fluorescence ratio: 0.98 ± 0.01

CCGTGCAGTT
switch fluorescence ratio: 2.12 ± 0.82

GCTTTACACC
switch fluorescence ratio: 1.19 ± 0.092

TTGAGGTTAT
switch fluorescence ratio: 1.02 ± 0.061

TTGTTTAATC
switch fluorescence ratio: 1.036 ± 0.0097

TACGATACTC
switch fluorescence ratio: 1.62 ± 0.026

GAGTTTTGAG
switch fluorescence ratio: 1 ± 0.011

TGAGGGGTAA
switch fluorescence ratio: 0.993 ± 0.042

TGTTAATGTG
switch fluorescence ratio: 1.004 ± 0.0038

TTTACAGGAT
switch fluorescence ratio: 0.993 ± 0.024

ACGACGGTAG
switch fluorescence ratio: 1.02 ± 0.029

ATTGGGGTTT
switch fluorescence ratio: 1 ± 0.019

AGGGGGACAC
switch fluorescence ratio: 1 ± 0.028

TGGTTTGGGA
switch fluorescence ratio: 1 ± 0.029

TGGGCCAGTT
switch fluorescence ratio: 0.981 ± 0.035

GAGCGCTTGG
switch fluorescence ratio: 1.01 ± 0.037

TTTAAGGATT
switch fluorescence ratio: 1.21 ± 0.33

GGGATAACGG
switch fluorescence ratio: 0.962 ± 0.018

AACAATTATT
switch fluorescence ratio: 1.04 ± 0.048

AATTTTTTGA
switch fluorescence ratio: 0.972 ± 0.033

CTGGTTTAGG
switch fluorescence ratio: 1 ± 0.036

GGCTCATTAT
switch fluorescence ratio: 0.9719 ± 0.0034

TTGAGTTGGG
switch fluorescence ratio: 0.973 ± 0.041

GTTTACCGGA
switch fluorescence ratio: 1.05 ± 0.08

GCACCTGGGC
switch fluorescence ratio: 0.991 ± 0.039

AGCTGATGGG
switch fluorescence ratio: 1.01 ± 0.014

CCAGGGGAGG
switch fluorescence ratio: 1.11 ± 0.071

TCTAGGATGG
switch fluorescence ratio: 0.962 ± 0.023

CAGGTCGGCT
switch fluorescence ratio: 0.995 ± 0.052

GCTGCTGTTG
switch fluorescence ratio: 1.06 ± 0.049

GTTGTAACGT
switch fluorescence ratio: 0.988 ± 0.054

GAATGAACCA
switch fluorescence ratio: 0.998 ± 0.049

GGGATAGGGT
switch fluorescence ratio: 1 ± 0.027

TGTATTGTGG
switch fluorescence ratio: 0.987 ± 0.021

GGGGGCGCGG
switch fluorescence ratio: 0.996 ± 0.015

GGGATAAGGG
switch fluorescence ratio: 1.01 ± 0.027

CTCTGGGGGC
switch fluorescence ratio: 1.1 ± 0.062

TTACAGGACG
switch fluorescence ratio: 1.2 ± 0.22

TCTGTAGCGG
switch fluorescence ratio: 1.13 ± 0.037

TCACGGGGGC
switch fluorescence ratio: 0.976 ± 0.061

TTGTTTGGTT
switch fluorescence ratio: 0.983 ± 0.034

TTATTAGACG
switch fluorescence ratio: 0.976 ± 0.059

GAGTTAAGGA
switch fluorescence ratio: 1.02 ± 0.03

ATTATTTACT
switch fluorescence ratio: 1.018 ± 0.0017

GTGAGAATGT
switch fluorescence ratio: 1.02 ± 0.02

TGTGAGGCTA
switch fluorescence ratio: 1.03 ± 0.012

GCTGGTGCTC
switch fluorescence ratio: 1.06 ± 0.05

CCAAGGGAGG
switch fluorescence ratio: 1.01 ± 0.03

TATCACGCAT
switch fluorescence ratio: 1.36 ± 0.018

CCAGGGACGA
switch fluorescence ratio: 1.02 ± 0.024

CCAGTGTATA
switch fluorescence ratio: 1.002 ± 0.0013

GTGACCAGAA
switch fluorescence ratio: 0.983 ± 0.025

AATGAGGTCG
switch fluorescence ratio: 1.002 ± 0.0046

TGCTGTATTC
switch fluorescence ratio: 0.967 ± 0.041

AAGTTGCACC
switch fluorescence ratio: 1 ± 0.067

AATAAATCTA
switch fluorescence ratio: 1.039 ± 0.0016

AAAATGGCGT
switch fluorescence ratio: 0.9694 ± 0.004

GCGCTAAGTT
switch fluorescence ratio: 0.984 ± 0.015

GGTTCCGTGG
switch fluorescence ratio: 0.994 ± 0.023

AAGGCCCTGA
switch fluorescence ratio: 0.994 ± 0.012

GATGTGTGTT
switch fluorescence ratio: 0.9735 ± 0.0089

GGGTTATTGA
switch fluorescence ratio: 0.995 ± 0.01

ATAGAGGGGT
switch fluorescence ratio: 1.01 ± 0.023

ATATAATTTG
switch fluorescence ratio: 1.04 ± 0.055

TAAAGGTCTT
switch fluorescence ratio: 1.01 ± 0.016

ATGGGGAGGC
switch fluorescence ratio: 1.05 ± 0.051

TCCAACGGGT
switch fluorescence ratio: 1.03 ± 0.059

AAGTCGACGT
switch fluorescence ratio: 1.03 ± 0.041

TCGAGGGCGG
switch fluorescence ratio: 0.98 ± 0.032

AGGGGTTGGA
switch fluorescence ratio: 1.01 ± 0.036

GGGAAGATTA
switch fluorescence ratio: 0.966 ± 0.031

TTTGATCTAT
switch fluorescence ratio: 0.989 ± 0.028

ACTGGGGTTT
switch fluorescence ratio: 0.982 ± 0.024

CGAAGCGGGG
switch fluorescence ratio: 1.08 ± 0.054

TCTGACAGTT
switch fluorescence ratio: 1.04 ± 0.029

AATGGGTTTT
switch fluorescence ratio: 0.976 ± 0.011

TGTTTTTTAG
switch fluorescence ratio: 1.01 ± 0.024

GCATGTGGCT
switch fluorescence ratio: 0.994 ± 0.024

GAGGGGAGAC
switch fluorescence ratio: 1.02 ± 0.048

TTTTACGTTA
switch fluorescence ratio: 1.23 ± 0.11

ACATGTAGAG
switch fluorescence ratio: 1 ± 0.0056

CTACAATGGA
switch fluorescence ratio: 1 ± 0.029

CTGTGTGCGG
switch fluorescence ratio: 0.97 ± 0.03

TTAACGCCGC
switch fluorescence ratio: 1.13 ± 0.069

AAAATTAACG
switch fluorescence ratio: 1.04 ± 0.028

ACATGAGCGG
switch fluorescence ratio: 0.971 ± 0.019

GCCGGGGAGT
switch fluorescence ratio: 0.989 ± 0.027

CTGGCACGGA
switch fluorescence ratio: 1 ± 0.063

GGTAGAGCTG
switch fluorescence ratio: 1 ± 0.018

TGAATCTAGA
switch fluorescence ratio: 1.01 ± 0.019

GTTGGGGATC
switch fluorescence ratio: 0.991 ± 0.025

ATGGCAGTGT
switch fluorescence ratio: 0.993 ± 0.018

TATTGGGCCC
switch fluorescence ratio: 0.9954 ± 0.0019

CAAGCTTGAA
switch fluorescence ratio: 0.963 ± 0.026

CTTGGAGGAA
switch fluorescence ratio: 0.999 ± 0.044

AAGGCAAGTC
switch fluorescence ratio: 1.13 ± 0.091

GGGAAGGTTG
switch fluorescence ratio: 1.04 ± 0.021

TGGGAAGTTC
switch fluorescence ratio: 1.04 ± 0.046

GGTTATTTGT
switch fluorescence ratio: 0.992 ± 0.041

TATAAGTATA
switch fluorescence ratio: 1.02 ± 0.011

CTGCGCAAGG
switch fluorescence ratio: 6.27 ± 0.014

TTATAATAGG
switch fluorescence ratio: 1.02 ± 0.032

CAAAAAACGG
switch fluorescence ratio: 1.13 ± 0.23

TGTAAGGTGA
switch fluorescence ratio: 1.03 ± 0.022

TGGGCGCCGG
switch fluorescence ratio: 1 ± 0.013

TGCTCCTGTA
switch fluorescence ratio: 1 ± 0.024

GTGTTTGAAA
switch fluorescence ratio: 0.998 ± 0.027

GCTGTAAGGC
switch fluorescence ratio: 1.01 ± 0.039

ATATTTGCTT
switch fluorescence ratio: 1 ± 0.025

TTGGGTGGGA
switch fluorescence ratio: 0.986 ± 0.044

GATTGGCGCG
switch fluorescence ratio: 1.006 ± 0.0031

CTGAAGGCCC
switch fluorescence ratio: 1.02 ± 0.019

GGACCGGGGT
switch fluorescence ratio: 0.966 ± 0.034

AGGTTGGGAA
switch fluorescence ratio: 0.944 ± 0.07

ATCTAGGGTT
switch fluorescence ratio: 0.995 ± 0.022

TGAGTTTGTT
switch fluorescence ratio: 1.021 ± 0.0092

TTCTCATTTT
switch fluorescence ratio: 1.01 ± 0.029

GAGTAGTAGT
switch fluorescence ratio: 0.967 ± 0.026

CCATATGGGG
switch fluorescence ratio: 1.01 ± 0.019

ATGTGGGGAG
switch fluorescence ratio: 0.9941 ± 0.002

TTTTAGAAGG
switch fluorescence ratio: 0.9797 ± 0.0062

GGGGAACGTT
switch fluorescence ratio: 0.947 ± 0.049

AAGGGGGCCT
switch fluorescence ratio: 1 ± 0.024

ATCGTGGGTG
switch fluorescence ratio: 0.984 ± 0.015

GAAAGGGGTG
switch fluorescence ratio: 1.02 ± 0.064

ATAATTCGGC
switch fluorescence ratio: 0.984 ± 0.022

ACTGGGTTTG
switch fluorescence ratio: 1.001 ± 0.0043

GGAATGGCTT
switch fluorescence ratio: 0.999 ± 0.0091

GTTTCGAGTA
switch fluorescence ratio: 0.957 ± 0.049

TTCGAACTCG
switch fluorescence ratio: 1.011 ± 0.0043

TTTAGATAAA
switch fluorescence ratio: 1.02 ± 0.017

GGCCTTAGGG
switch fluorescence ratio: 0.987 ± 0.013

GCGTTGTTCG
switch fluorescence ratio: 0.99 ± 0.044

CCAGGTTTGG
switch fluorescence ratio: 1.03 ± 0.024

CTCAAAAACA
switch fluorescence ratio: 1.02 ± 0.028

GGGGACTTAG
switch fluorescence ratio: 0.9854 ± 0.0025

ATGGGGTAAC
switch fluorescence ratio: 0.969 ± 0.011

ATACTGAATT
switch fluorescence ratio: 1.005 ± 0.0065

ATCGGAAAGC
switch fluorescence ratio: 1.07 ± 0.028

TTTCCGACGG
switch fluorescence ratio: 1.57 ± 0.79

AGAAGAATTG
switch fluorescence ratio: 1.04 ± 0.048

TCGGTATGAA
switch fluorescence ratio: 1.01 ± 0.018

CTTATAGGTC
switch fluorescence ratio: 1.01 ± 0.017

CCTGAGGATG
switch fluorescence ratio: 1.03 ± 0.015

TAACCAGTTA
switch fluorescence ratio: 1.04 ± 0.019

TCTAAAAGTG
switch fluorescence ratio: 0.9752 ± 0.0022

GAGTATCTTT
switch fluorescence ratio: 0.998 ± 0.018

TATGAGATTA
switch fluorescence ratio: 0.9935 ± 0.004

TTTGGAAATT
switch fluorescence ratio: 1.43 ± 0.61

ACAAGGAATG
switch fluorescence ratio: 0.997 ± 0.044

TAAGGCCTGT
switch fluorescence ratio: 0.9978 ± 0.0099

ACCCGGGCTT
switch fluorescence ratio: 0.995 ± 0.026

ACGGGGTAAA
switch fluorescence ratio: 1.004 ± 0.009

CATGGAATTG
switch fluorescence ratio: 0.989 ± 0.032

GTGTAAAAGC
switch fluorescence ratio: 1.03 ± 0.011

GTGGGGCGCG
switch fluorescence ratio: 1.02 ± 0.038

GATGAGAGGA
switch fluorescence ratio: 1.03 ± 0.05

CTAGATTTGA
switch fluorescence ratio: 1 ± 0.024

TGTTATATTG
switch fluorescence ratio: 1 ± 0.035

ACATAGGCGG
switch fluorescence ratio: 1.022 ± 0.0083

CGCTAGGGAC
switch fluorescence ratio: 1.314 ± 0.003

TGGTTTCCTT
switch fluorescence ratio: 0.955 ± 0.025

GGGGAACGGC
switch fluorescence ratio: 0.963 ± 0.036

TCCTTTAAGG
switch fluorescence ratio: 1.025 ± 0.003

TTGCAATTTA
switch fluorescence ratio: 1.06 ± 0.033

TATCCACATA
switch fluorescence ratio: 1.1 ± 0.013

ATTTTTGTAG
switch fluorescence ratio: 1.01 ± 0.017

GAAATGTGTT
switch fluorescence ratio: 1 ± 0.056

GTTTCTGGGG
switch fluorescence ratio: 0.971 ± 0.052

CGGGGTTTCG
switch fluorescence ratio: 0.993 ± 0.028

AAGGGACAAA
switch fluorescence ratio: 1.04 ± 0.014
